From patent publication US20240226163A1 come the findings set out here.

Common to all, as to experiment: flow cytometry, peptide-pulsed T2 cells, 100 nM antibody
On the technique in general: In flow cytometry, cells or beads pass a laser one at a time.

In assay [1] the target is HLA-A*02:01 presenting CCDC36 417-426 peptide (…) (human).
Assay [2] addresses HLA-A*02:01 presenting CELSR3 1594-1603 peptide (…) (human).
Assay [3] addresses HLA-A*02:01 presenting FAT4 4053-4062 peptide (…) (human).
The target in assay [4] is HLA-A*02:01 presenting LPIN2 823-832 peptide (…) (human).
Assay [5] concerns the target HLA-A*02:01 presenting MAGE-A10 254-263 peptide (…) (human).
Assay [6] has as its target HLA-A*02:01 presenting MAGE-A4 230-239 peptide (…) (human).
In assay [7] the target is HLA-A*02:01 presenting MAGE-A8 232-241 peptide (…) (human).
For assay [8], the target named is HLA-A*02:01 presenting PAPPA2 307-316 peptide (…) (human).
Assay [9] has as its target HLA-A*02:01 presenting SCL25A19 111-120 peptide (…) (human).
In assay [10] the target is HLA-A*02:01 presenting THBS3 116-125 peptide (…) (human).

In the case of “mAb1097 (mIgG2a Isotype Control) (antibody)”, the Antibody Binding Ratio (pulsed cell MFI/Unpulsed cell MFI) turned out to be 1.1 in assay [1]; 0.9 in assay [2]; 1.1 in [3]; 0.9 in [4]; 1.3 in assay [5]; 4.3 in assay [6]. Moreover, the Antibody Binding Ratio (pulsed cell MFI/Unpulsed cell MFI) was 3.3 in assay [7], 0.9 in assay [8], 0.9 in [9] and 1 in assay [10].
